These results are taken from patent publication US20020111475A1 (IMMUNEX, published 2002).

Substitutions are numbered along the chain they refer to. Names may count otherwise.

First the molecules themselves.
T1: human flt3 on BAF/hflt3 cells (BAF-BO3 cells transfected with human flt3 cDNA) (human, UniProt P36888 27-993)
T1 construct: whole, on cells; also called flt3 Receptor
T1 sequence (looked up): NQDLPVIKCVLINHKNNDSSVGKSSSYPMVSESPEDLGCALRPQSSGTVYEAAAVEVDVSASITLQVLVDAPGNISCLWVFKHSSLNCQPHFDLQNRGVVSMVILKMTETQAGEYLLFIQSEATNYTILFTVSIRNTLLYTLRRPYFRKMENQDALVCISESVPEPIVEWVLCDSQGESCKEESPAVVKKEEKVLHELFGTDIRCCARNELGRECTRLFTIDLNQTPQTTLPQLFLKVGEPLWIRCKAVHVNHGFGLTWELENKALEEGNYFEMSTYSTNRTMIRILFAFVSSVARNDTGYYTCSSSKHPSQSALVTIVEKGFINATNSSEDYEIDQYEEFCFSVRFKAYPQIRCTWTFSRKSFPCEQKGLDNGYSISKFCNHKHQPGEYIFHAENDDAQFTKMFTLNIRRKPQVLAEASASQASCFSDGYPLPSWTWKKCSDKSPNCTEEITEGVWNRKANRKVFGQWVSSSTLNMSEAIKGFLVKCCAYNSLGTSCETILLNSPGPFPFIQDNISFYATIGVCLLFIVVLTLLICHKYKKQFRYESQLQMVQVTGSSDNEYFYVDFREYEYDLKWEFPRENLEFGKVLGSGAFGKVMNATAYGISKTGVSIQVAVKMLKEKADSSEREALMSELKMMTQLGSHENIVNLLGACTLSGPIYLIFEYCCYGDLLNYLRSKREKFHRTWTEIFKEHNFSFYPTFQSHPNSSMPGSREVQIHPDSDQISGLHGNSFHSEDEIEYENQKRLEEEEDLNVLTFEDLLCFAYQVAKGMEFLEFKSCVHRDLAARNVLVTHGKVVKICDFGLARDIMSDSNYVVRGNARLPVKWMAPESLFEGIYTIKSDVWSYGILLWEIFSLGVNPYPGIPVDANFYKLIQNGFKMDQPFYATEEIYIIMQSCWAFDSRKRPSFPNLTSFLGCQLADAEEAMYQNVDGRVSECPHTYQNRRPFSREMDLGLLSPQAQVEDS

T2: flt3 on murine WWF7 cells
T2 sequence (Q00342 whole entry, looked up): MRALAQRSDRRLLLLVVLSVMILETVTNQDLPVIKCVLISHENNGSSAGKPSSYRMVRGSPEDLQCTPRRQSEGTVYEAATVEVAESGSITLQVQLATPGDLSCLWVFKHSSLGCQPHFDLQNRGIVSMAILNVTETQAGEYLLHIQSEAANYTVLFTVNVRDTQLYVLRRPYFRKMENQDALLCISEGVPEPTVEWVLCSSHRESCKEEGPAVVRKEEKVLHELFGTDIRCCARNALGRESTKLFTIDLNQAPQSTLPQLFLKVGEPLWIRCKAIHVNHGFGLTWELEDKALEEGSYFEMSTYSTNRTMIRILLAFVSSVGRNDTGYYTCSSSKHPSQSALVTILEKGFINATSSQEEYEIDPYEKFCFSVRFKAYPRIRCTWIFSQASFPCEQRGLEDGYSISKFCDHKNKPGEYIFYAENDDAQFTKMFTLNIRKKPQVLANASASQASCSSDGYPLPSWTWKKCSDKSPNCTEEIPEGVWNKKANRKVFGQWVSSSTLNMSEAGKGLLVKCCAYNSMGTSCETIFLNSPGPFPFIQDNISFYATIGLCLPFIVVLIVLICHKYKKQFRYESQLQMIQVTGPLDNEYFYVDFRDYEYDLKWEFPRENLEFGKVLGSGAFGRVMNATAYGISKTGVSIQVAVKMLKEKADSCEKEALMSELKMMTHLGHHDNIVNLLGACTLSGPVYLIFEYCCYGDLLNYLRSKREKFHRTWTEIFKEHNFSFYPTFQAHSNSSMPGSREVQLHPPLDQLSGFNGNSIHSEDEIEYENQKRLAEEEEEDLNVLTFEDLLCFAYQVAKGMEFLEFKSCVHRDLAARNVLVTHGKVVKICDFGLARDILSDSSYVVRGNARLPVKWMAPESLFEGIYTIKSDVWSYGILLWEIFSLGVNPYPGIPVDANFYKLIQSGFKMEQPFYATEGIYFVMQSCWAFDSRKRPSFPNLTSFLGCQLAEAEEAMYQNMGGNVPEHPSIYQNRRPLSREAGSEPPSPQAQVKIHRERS

B1: recombinant CHO-derived human flt3-L, which has native human sequence (ligand)
chain: TQDCSFQHSPISSDFAVKIRELSDYLLQDYPVTVASNLQDEELCGGLWRLVLAQRWMERLKTVAGSKMQGLLERVNTEIHFVTKCAFQPPPSCLRFVQTNISRLLQETSEQLVALKPWITRQNFSRCLELQCQPDSSTLPPPWSPRPLEATAPTAPQP
B2: flt3-L multiple mutant K84E/Q122R (ligand)
chain: LSGTQDCSFQHSPISSDFAVKIRELSDYLLQDYPVTVASNLQDEELCGGLWRLVLAQRWMERLKTVAGSKMQGLLERVNTEIHFVTECAFQPPPSCLRFVQTNISRLLQETSEQLVALKPWITRRNFARCLELQCQPDSSTLPPPWSPRPLEATAP
notes: also called double mutant K84E/Q122R
B3: flt3-L mutant H8Y (ligand)
chain: B2 chain with H11Y, E87K, R125Q
notes: yeast supernatant and purified protein (dimer)
B4: flt3-L quadruply substituted mutant L-3H/H8Y/K84E/Q122R (ligand)
chain: B2 chain with L1H, H11Y
notes: Constructed by PCR mutagenesis from K84E/Q122R, expressed in yeast and purified
B5: flt3-L mutant F87L (ligand)
chain: LSGTQDCSFQHSPISSDFAVKIRELSDYLLQDYPVTVASNLQDEELCGGLWRLVLAQRWMERLKTVAGSKMQGLLERVNTEIHFVTKCALQPPPSCLRFVQTNISRLLQETSEQLVALKPWITRQNFARCLELQCQPDSSTLPPPWSPRPLEATAPTAPQPPLLLLLLLPVGLLLLAAAWCLHWQRTRRRTPRPGEQVPPVPSPQDLLLVEH
B6: flt3-L mutant F124L (ligand)
chain: B5 chain with L90F, F127L
B7: flt3-L mutant D3G (ligand)
chain: B5 chain with D6G, L90F
B8: flt3-L mutant S13P (ligand)
chain: B5 chain with S16P, L90F
B9: flt3-L mutant V113E (ligand)
chain: B5 chain with L90F, V116E
B10: flt3-L mutant P90S (ligand)
chain: B5 chain with L90F, P93S
B11: flt3-L mutant F124S (ligand)
chain: B5 chain with L90F, F127S
B12: flt3-L mutant R95C (ligand)
chain: B5 chain with L90F, R98C
B13: flt3-L mutant S13F (ligand)
chain: B5 chain with S16F, L90F
B14: flt3-L mutant S9G (ligand)
chain: B5 chain with S12G, L90F
B15: flt3-L mutant P10S (ligand)
chain: B5 chain with P13S, L90F

The target in the first assay is T1, human flt3 on BAF/hflt3 cells (BAF-BO3 …). The assay is described as follows: Kdi: inhibition of binding of radiolabelled yeast-derived flt3-L to BAF-BO3 cells transfected with human flt3. The procedure: Binding assays were performed using a phthalate oil separation method as described previously for murine ¹²⁵I-GM-CSF (Park et al., J. Biol. Chem. 261:4177-4183 (1986)). Briefly, BAF-BO3 cells transfected with human flt3 cDNA (0.5-1×10⁶) were incubated with serial dilutions of ¹²⁵I-flt3-L in binding medium (RPMI 1640, 2.5% bovine serum albumin, 0.2% NaN3, 20 mM Hepes, pH 7.2) in 96 well microtiter plates maintained on a mini-orbital shaker (Bellco) at 37° C. for 90 minutes. Inhibition binding assays were carried out by holding the radiolabeled flt3-L concentration constant at 0.3 nM, while the concentration of unlabeled competitor proteins ranged from 150 nM to 0.001 nM. The ratio of Kdi of mutant to wild type flt3-L, determined in at least duplicate, in a given assay was averaged over at least three independent assays and the standard error of the mean (SEM) reported. […]
Specific activity of purified mutant or wild type protein was calculated as the ratio of proliferation activity in BAF/hflt3 cells (units/ml) to concentration of flt3-L protein as determined by amino acid composition (ng/ml). The ratio of specific activity of mutant to wild type flt3-L, determined in duplicate, in a given assay was averaged over at least three independent assays and the standard error of the mean (SEM) is reported. […]
In the case of B1, the Ki came out at 0.08 nM.

For another assay the target is unchanged. The assay is described as follows: cell-based or functional assay.
As to B2, the “Sp.Ac. MUT / Sp.Ac. Wt (BAF/hflt3 cell proliferation units/ml per ng/ml purified protein)” value is 2.9 ratio to wild type.
On to B3, for which the “Sp.Ac. MUT / Sp.Ac. Wt (BAF/hflt3 cell proliferation units/ml per ng/ml purified protein)” value was 2.1 ratio to wild type.
On to B4, for which the “Sp.Ac. MUT / Sp.Ac. Wt (BAF/hflt3 cell proliferation units/ml per ng/ml purified protein)” value was 3 ratio to wild type.

Another assay shares this target. Nature of the assay: inhibition of 125I-flt3-L binding to BAF/hflt3 cells, purified protein. The procedure: Binding assays were performed using a phthalate oil separation method as described previously for murine ¹²⁵I-GM-CSF (Park et al., J. Biol. Chem. 261:4177-4183 (1986)). Briefly, BAF-BO3 cells transfected with human flt3 cDNA (0.5-1×10⁶) were incubated with serial dilutions of ¹²⁵I-flt3-L in binding medium (RPMI 1640, 2.5% bovine serum albumin, 0.2% NaN3, 20 mM Hepes, pH 7.2) in 96 well microtiter plates maintained on a mini-orbital shaker (Bellco) at 37° C. for 90 minutes. Inhibition binding assays were carried out by holding the radiolabeled flt3-L concentration constant at 0.3 nM, while the concentration of unlabeled competitor proteins ranged from 150 nM to 0.001 nM. The ratio of Kdi of mutant to wild type flt3-L, determined in at least duplicate, in a given assay was averaged over at least three independent assays and the standard error of the mean (SEM) reported. […] For this assay, cells expressing human flt3 (BAF/hflt3 cells) were constructed from BAF/B03 cells, using a procedure previously described for producing BAF/B03 cells expressing the murine flt3 (Lyman et al., Cell 75:1157-1167 (1993)). Expression of human flt3 by BAF/hflt3 cells was confirmed by examining the capacity of the cells to proliferate in response to soluble flt3-L, and by flow cytometric analysis using biotinylated flt3-L.
^aThe specific activity of purified mutant or wild type protein was determined by taking the ratio of proliferation activity in BAF/hflt3 cells (units/ml) to concentration of flt3-L protein as determined by amino acid composition (ng/ml). The ratio of specific activity of mutant to wild type flt3-L is averaged over three independent assays, and the standard error of the mean (SEM) is reported. ^bThe Kdifor wild type protein is 61 ± 19 pM (n = 2). The ratio of Kₐᵢ of mutant to wild type flt3-L is averaged over two independent assays and the standard deviation is reported.
B2: the “Kai MUT / Kai Wt” value was 3.4 ratio to wild type.
For B3, the “Kai MUT / Kai Wt” value was 2.8 ratio to wild type.
Take B4: the “Kai MUT / Kai Wt” value was 8.6 ratio to wild type.

In the next assay the target is T2, flt3 on murine WWF7 cells. Nature of the assay: cell-based or functional assay.
Turning to B5, the “Sp.Ac. MUT / Sp.Ac. WT (WWF7 cell proliferation units/ml per flt3-L ng/ml by ELISA, yeast supernatant)” value is 0.01 ratio to wild type.
Turning to B6, the “Sp.Ac. MUT / Sp.Ac. WT (WWF7 cell proliferation units/ml per flt3-L ng/ml by ELISA, yeast supernatant)” value is 0.22 ratio to wild type.
Take B7: the “Sp.Ac. MUT / Sp.Ac. WT (WWF7 cell proliferation units/ml per flt3-L ng/ml by ELISA, yeast supernatant)” value was 0.81 ratio to wild type.
B8: the “Sp.Ac. MUT / Sp.Ac. WT (WWF7 cell proliferation units/ml per flt3-L ng/ml by ELISA, yeast supernatant)” value is 0 ratio to wild type.
On to B9, for which the “Sp.Ac. MUT / Sp.Ac. WT (WWF7 cell proliferation units/ml per flt3-L ng/ml by ELISA, yeast supernatant)” value is 0.8 ratio to wild type.
Consider B10, for which the “Sp.Ac. MUT / Sp.Ac. WT (WWF7 cell proliferation units/ml per flt3-L ng/ml by ELISA, yeast supernatant)” value was 0.09 ratio to wild type.
The same measure, in the same setting: as for B11, the figure is 0 ratio to wild type.
Still for that read-out and setting: as for B12, the figure is 0.26 ratio to wild type; as for B13, 0 ratio to wild type; as for B14, 0.13 ratio to wild type.
Turning to B15, the “Sp.Ac. MUT / Sp.Ac. WT (WWF7 cell proliferation units/ml per flt3-L ng/ml by ELISA, yeast supernatant)” value is 0 ratio to wild type.
